B1: Azoarcus group I ribozyme (parent)
chain: GUGCCUUGCGCCGGGAAACCACGCAAGGGAUGGUGUCAAAUUCGGCGAAACCUAAGCGCCCGCCCGGGCGUAUGGCAACGCCGAGCCAAGCUUCGGCGCCUGCGCCGAUGAAGGUGUAGAGACUAGACGGCACCCACCUAAGGCAAACGCUAUGGUGAAGGCAUAGUCCAGGGAGUGGCGAAAGUCACACAAACCGG

Variants of: B1
Assay: reverse-splicing fitness (ratio to wild type); higher = more active; in vitro selection; Mg2+ level not given
Outline: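 An in vitro group I ribozyme library with randomized positions was T7-transcribed and gel-purified. In triplicate, 10 pmol RNA in EPPS pH 7.5 was reacted with 50 pmoles of a 30-nt RNA substrate for 1 h at 37 °C across several added MgCl2 levels (1–48 mM), then stopped with EDTA. Products were reverse transcribed from a substrate-complementary primer, PCR-amplified and sequenced (HiSeq 4000). Fitness is a variant's read proportion after selection over that before, normalised to wild type.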

Point of comparison: GUGCCUUGCGCCGGGAAACCACGCAAGGGAUGGUGUCAAAUUCGGCGAAACCUAAGCGCCCGCCCGGGCGUAUGGCAACGCUGAGCCAAGCUUCGGCGCCUGCGCCGAUGAAGGUGUAGAGACUAGACGGCACCCACCUAAGGCAAACGCUAUGGUGAAGGCAUAGUCAAGGGAGUGGCGAAAGUCACACAAACCGG [C82U C169A], reverse-splicing fitness 0.00905. Against it:
- GUGCCUUGCGCCGGGAAACCACGCAAGGGAUGGUGUCAAAUUCGGCGAAACCUAAGCGCCCGCCCGGGCGUAUGGCAACGCUGAGCCAAGCUUCGGCGCCUGCGCCGAUGAAGGUGUAGAGACUAGACGGCACCCACCUAAGGCAAACGCUAUGGUGAAGGCAUAGUCGAGGGAGUGGCGAAAGUCACACAAACCGG [C82U C169G] — higher, 0.00984
- GUGCCUUGCGCCGGGAAACCACGCAAGGGAUGGUGUCAAAUUCGGCGAAACCUAAGCGCCCGCCCGGGCGUAUGGCAACGCUGAGCCAAGCUUCGGCGCCUGCGCCGAUGAAGGUGUAGAGACUAGACGGCACCCACCUAAGGCAAACGCUAUGGUGAAGGCAUAGUCUAGGGAGUGGCGAAAGUCACACAAACCGG [C82U C169U] — higher, 0.0149
- GUGCCUUGCGCCGGGAAACCACGCAAGGGAUGGUGUCAAAUUCGGCGAAACCUAAGCGCCCGCCCGGGCGUAUGGCAACGCCGAGCCAAGCUUCGGCGCCUGCGCCGAUGCAGGUGUAGCGACUAGACGGCACCCACCUAAGGCAAACGCUAUGGUGAAGGCAUAGUCCAGGGAGUGGCGAAAGUCACACAAACCGG [A111C A120C] — higher, 0.576
- GUGCCUUGCGCCGGGAAACCACGCAAGGGAUGGUGUCAAAUUCGGCGAAACCUAAGCGCCCGCCCGGGCGUAUGGCAACGCCGAGCCAAGCUUCGGCGCCUGCGCCGAUGCAGGUGUAGCGACUAGACGGCACCCACCUAAGGCCAACGAUAUGGUGAAGGCAUAGUCGAGGGAGUGGCGAAAGUCACACAAACCGG [A111C A120C A145C C150A C169G] — lower, 0.0073
- GUGCCUUGCGCCGGGAAACCACGCAAGGGAUGGUGUCAAAUUCGGCGAAACCUAAGCGCCCGCCCGGGCGUAUGGCAACGCCGAGCCAAGCUUCGGCGCCUGCGCCGAUGCAGGUGUAGCGACUAGACGGCACCCACCUAAGGCCAACGAUAUGGUGAAGGCAUAGUCAAGGGAGUGGCGAAAGUCACACAAACCGG [A111C A120C A145C C150A C169A] — lower, 0.00839
- GUGCCUUGCGCCGGGAAACCACGCAAGGGAUGGUGUCAAAUUCGGCGAAACCUAAGCGCCCGCCCGGGCGUAUGGCAACGCCGAGCCAAGCUUCGGCGCCUGCGCCGAUGCAGGUGUAGCGACUAGACGGCACCCACCUAAGGCCAACGAUAUGGUGAAGGCAUAGUCUAGGGAGUGGCGAAAGUCACACAAACCGG [A111C A120C A145C C150A C169U] — higher, 0.0161
- GUGCCUUGCGCCGGGAAACCACGCAAGGGAUGGUGUCAAAUUCGGCGAAACCUAAGCGCCCGCCCGGGCGUAUGGCAACGCUGAGCCAAGCUUCGGCGCCUGCGCCGAUGAAGGUGUAGAGACUAGACGGCACCCACCUAAGGCAAACGCUAUGGUGAAGGCAUAGUCAAGGGAGGGGCGAAAGUCACACAAACCGG [C82U C169A U176G] — lower, 0.00439
- GUGCCUUGCGCCGGGAAACCACGCAAGGGAUGGUGUCAAAUUCGGCGAAACCUAAGCGCCCGCCCGGGCGUAUGGCAACGCUGAGCCAAGCUUCGGCGCCUGCGCCGAUGAAGGUGUAGAGACUAGACGGCACCCACCUAAGGCAAACGCUAUGGUGAAGGCAUAGUCAAGGGAGAGGCGAAAGUCACACAAACCGG [C82U C169A U176A] — higher, 0.0127
- GUGCCUUGCGCCGGGAAACCACGCAAGGGAUGGUGUCAAAUUCGGCGAAACCUAAGCGCCCGCCCGGGCGUAUGGCAACGCUGAGCCAAGCUUCGGCGCCUGCGCCGAUGAAGGUGUAGAGACUAGACGGCACCCACCUAAGGCAAACGCUAUGGUGAAGGCAUAGUCAAGGGAGCGGCGAAAGUCACACAAACCGG [C82U C169A U176C] — higher, 0.0154
- GUGCCUUGCGCCGGGAAACCACGCAAGGGAUGGUGUCAAAUUCGGCGAAACCUAAGCGCCCGCCCGGGCGUAUGGCAACGCCGAGCCAAGCUUCGGCGCCUGCGCCGAUGCAGGUGUAGCGACUAGACGGCACCCACCUAAGGCCAACGCUAUGGUGAAGGCAUAGUCCAGGGAGUGGCGAAAGUCACACAAACCGG [A111C A120C A145C] — higher, 0.556
- GUGCCUUGCGCCGGGAAACCACGCAAGGGAUGGUGUCAAAUUCGGCGAAACCUAAGCGCCCGCCCGGGCGUAUGGCAACGCUGAGCCAAGCUUCGGCGCCUGCGCCGAUGAAGGUGUAGAGACUAGACGGCACCCACCUAAGGCAAACGUUAUGGUGAAGGCAUAGUCCAGGGAGGGGCGAAAGUCACACAAACCGG [C82U C150U U176G] — higher, 0.0675
- GUGCCUUGCGCCGGGAAACCACGCAAGGGAUGGUGUCAAAUUCGGCGAAACCUAAGCGCCCGCCCGGGCGUAUGGCAACGCUGAGCCAAGCUUCGGCGCCUGCGCCGAUGAAGGUGUAGAGACUAGACGGCACCCACCUAAGGCAAACGUUAUGGUGAAGGCAUAGUCCAGGGAGCGGCGAAAGUCACACAAACCGG [C82U C150U U176C] — higher, 0.294
- GUGCCUUGCGCCGGGAAACCACGCAAGGGAUGGUGUCAAAUUCGGCGAAACCUAAGCGCCCGCCCGGGCGUAUGGCAACGCUGAGCCAAGCUUCGGCGCCUGCGCCGAUGAAGGUGUAGAGACUAGACGGCACCCACCUAAGGCAAACGCUAUGGUGAAGGCAUAGUCCAGGGAGCGGCGAAAGUCACACAAACCGG [C82U U176C] — higher, 0.476
- GUGCCUUGCGCCGGGAAACCACGCAAGGGAUGGUGUCAAAUUCGGCGAAACCUAAGCGCCCGCCCGGGCGUAUGGCAACGCUGAGCCAAGCUUCGGCGCCUGCGCCGAUGAAGGUGUAGAGACUAGACGGCACCCACCUAAGGCAAACGCUAUGGUGAAGGCAUAGUCCAGGGAGAGGCGAAAGUCACACAAACCGG [C82U U176A] — higher, 0.386
- GUGCCUUGCGCCGGGAAACCACGCAAGGGAUGGUGUCAAAUUCGGCGAAACCUAAGCGCCCGCCCGGGCGUAUGGCAACGCUGAGCCAAGCUUCGGCGCCUGCGCCGAUGAAGGUGUAGAGACUAGACGGCACCCACCUAAGGCAAACGCUAUGGUGAAGGCAUAGUCCAGGGAGGGGCGAAAGUCACACAAACCGG [C82U U176G] — higher, 0.126
- GUGCCUUGCGCCGGGAAACCACGCAAGGGAUGGUGUCAAAUUCGGCGAAACCUAAGCGCCCGCCCGGGCGUAUGGCAACGCCGAGCCAAGCUUCGGCGCCUGCGCCGAUGCAGGUGUAGCGACUAGACGGCACCCACCUAAGGCCAACGAUAUGGUGAAGGCAUAGUCAAGGGAGAGGCGAAAGUCACACAAACCGG [A111C A120C A145C C150A C169A U176A] — higher, 0.0152
- GUGCCUUGCGCCGGGAAACCACGCAAGGGAUGGUGUCAAAUUCGGCGAAACCUAAGCGCCCGCCCGGGCGUAUGGCAACGCCGAGCCAAGCUUCGGCGCCUGCGCCGAUGCAGGUGUAGCGACUAGACGGCACCCACCUAAGGCCAACGAUAUGGUGAAGGCAUAGUCAAGGGAGCGGCGAAAGUCACACAAACCGG [A111C A120C A145C C150A C169A U176C] — lower, 0.00638
- GUGCCUUGCGCCGGGAAACCACGCAAGGGAUGGUGUCAAAUUCGGCGAAACCUAAGCGCCCGCCCGGGCGUAUGGCAACGCCGAGCCAAGCUUCGGCGCCUGCGCCGAUGCAGGUGUAGCGACUAGACGGCACCCACCUAAGGCCAACGAUAUGGUGAAGGCAUAGUCAAGGGAGGGGCGAAAGUCACACAAACCGG [A111C A120C A145C C150A C169A U176G] — lower, 0.00655
- GUGCCUUGCGCCGGGAAACCACGCAAGGGAUGGUGUCAAAUUCGGCGAAACCUAAGCGCCCGCCCGGGCGUAUGGCAACGCCGAGCCAAGCUUCGGCGCCUGCGCCGAUGCAGGUGUAGCGACUAGACGGCACCCACCUAAGGCCAACGAUAUGGUGAAGGCAUAGUCGAGGGAGCGGCGAAAGUCACACAAACCGG [A111C A120C A145C C150A C169G U176C] — higher, 0.0146
- GUGCCUUGCGCCGGGAAACCACGCAAGGGAUGGUGUCAAAUUCGGCGAAACCUAAGCGCCCGCCCGGGCGUAUGGCAACGCCGAGCCAAGCUUCGGCGCCUGCGCCGAUGCAGGUGUAGCGACUAGACGGCACCCACCUAAGGCCAACGAUAUGGUGAAGGCAUAGUCGAGGGAGAGGCGAAAGUCACACAAACCGG [A111C A120C A145C C150A C169G U176A] — higher, 0.0246
- GUGCCUUGCGCCGGGAAACCACGCAAGGGAUGGUGUCAAAUUCGGCGAAACCUAAGCGCCCGCCCGGGCGUAUGGCAACGCCGAGCCAAGCUUCGGCGCCUGCGCCGAUGCAGGUGUAGCGACUAGACGGCACCCACCUAAGGCCAACGAUAUGGUGAAGGCAUAGUCGAGGGAGGGGCGAAAGUCACACAAACCGG [A111C A120C A145C C150A C169G U176G] — lower, 0.007
- GUGCCUUGCGCCGGGAAACCACGCAAGGGAUGGUGUCAAAUUCGGCGAAACCUAAGCGCCCGCCCGGGCGUAUGGCAACGCCGAGCCAAGCUUCGGCGCCUGCGCCGAUGCAGGUGUAGCGACUAGACGGCACCCACCUAAGGCCAACGAUAUGGUGAAGGCAUAGUCCAGGGAGUGGCGAAAGUCACACAAACCGG [A111C A120C A145C C150A] — higher, 0.0308
- GUGCCUUGCGCCGGGAAACCACGCAAGGGAUGGUGUCAAAUUCGGCGAAACCUAAGCGCCCGCCCGGGCGUAUGGCAACGCUGAGCCAAGCUUCGGCGCCUGCGCCGAUGAAGGUGUAGAGACUAGACGGCACCCACCUAAGGCAAACGCUAUGGUGAAGGCAUAGUCUAGGGAGGGGCGAAAGUCACACAAACCGG [C82U C169U U176G] — lower, 0.00445
- GUGCCUUGCGCCGGGAAACCACGCAAGGGAUGGUGUCAAAUUCGGCGAAACCUAAGCGCCCGCCCGGGCGUAUGGCAACGCUGAGCCAAGCUUCGGCGCCUGCGCCGAUGAAGGUGUAGAGACUAGACGGCACCCACCUAAGGCAAACGCUAUGGUGAAGGCAUAGUCUAGGGAGCGGCGAAAGUCACACAAACCGG [C82U C169U U176C] — higher, 0.0155
- GUGCCUUGCGCCGGGAAACCACGCAAGGGAUGGUGUCAAAUUCGGCGAAACCUAAGCGCCCGCCCGGGCGUAUGGCAACGCUGAGCCAAGCUUCGGCGCCUGCGCCGAUGAAGGUGUAGAGACUAGACGGCACCCACCUAAGGCAAACGCUAUGGUGAAGGCAUAGUCUAGGGAGAGGCGAAAGUCACACAAACCGG [C82U C169U U176A] — higher, 0.0123
- GUGCCUUGCGCCGGGAAACCACGCAAGGGAUGGUGUCAAAUUCGGCGAAACCUAAGCGCCCGCCCGGGCGUAUGGCAACGCCGAGCCAAGCUUCGGCGCCUGCGCCGAUGCAGGUGUAGAGACUAGACGGCACCCACCUAAGGCAAACGCUAUGGUGAAGGCAUAGUCCAGGGAGUGGCGAAAGUCACACAAACCGG [A111C] — higher, 0.872
- GUGCCUUGCGCCGGGAAACCACGCAAGGGAUGGUGUCAAAUUCGGCGAAACCUAAGCGCCCGCCCGGGCGUAUGGCAACGCUGAGCCAAGCUUCGGCGCCUGCGCCGAUGAAGGUGUAGAGACUAGACGGCACCCACCUAAGGCAAACGCUAUGGUGAAGGCAUAGUCGAGGGAGCGGCGAAAGUCACACAAACCGG [C82U C169G U176C] — higher, 0.0184
- GUGCCUUGCGCCGGGAAACCACGCAAGGGAUGGUGUCAAAUUCGGCGAAACCUAAGCGCCCGCCCGGGCGUAUGGCAACGCUGAGCCAAGCUUCGGCGCCUGCGCCGAUGAAGGUGUAGAGACUAGACGGCACCCACCUAAGGCAAACGCUAUGGUGAAGGCAUAGUCGAGGGAGGGGCGAAAGUCACACAAACCGG [C82U C169G U176G] — lower, 0.00406
- GUGCCUUGCGCCGGGAAACCACGCAAGGGAUGGUGUCAAAUUCGGCGAAACCUAAGCGCCCGCCCGGGCGUAUGGCAACGCUGAGCCAAGCUUCGGCGCCUGCGCCGAUGAAGGUGUAGAGACUAGACGGCACCCACCUAAGGCAAACGCUAUGGUGAAGGCAUAGUCGAGGGAGAGGCGAAAGUCACACAAACCGG [C82U C169G U176A] — higher, 0.0144
